# Source: patent US20190315886A1
# Legend:
# [1] = molecular target: human thrombin with His tag (human) (UniProt P00734); experiment: Biacore; ratio of KD on pro-thrombin to KD on thrombin
# [2] = molecular target: human prothrombin with His tag (human) (UniProt P00734); experiment: Biacore; reference h1601-008
# [3] = molecular target: human thrombin with His tag (human) (UniProt P00734); experiment: Biacore; reference h1601-008
# [4] = molecular target: human prothrombin with His tag (human) (UniProt P00734); experiment: Biacore
# [5] = molecular target: human thrombin with His tag (human) (UniProt P00734); experiment: Biacore
substance,measurement,setting,value
Ichorcumab (antibody),Selective activity,[1],51
same,Fold of Affinity relative to h1601-008,[2],0.6 fold
same,Fold of Affinity relative to h1601-008,[3],3 fold
same,Kd,[4],131 nM
same,Kd,[5],2.57 nM
